Reference: article PMC4400149, “The Carboxy-Terminal Domain of Erb1 Is a Seven-Bladed ß-Propeller that Binds RNA” (PLoS ONE, 2015)
Blank lines part the entries; values can stand above or below the molecule they belong to.

Key:
[1] = target: T1, ChErb1 432-801 (C-terminal seven-bladed beta-propeller) (Chaetomium thermophilum var. thermophilum) (UniProt G0SCK6); test: fluorescence titration (intrinsic Trp); conditions: apparent KD; emission at 315 nm; 1.5 uM protein; Fluorescence: 20 mM Hepes pH 7.5, 150 mM NaCl, 5% glycerol, 2 mM beta-mercaptoethanol, 25 C; bead pull-down: 50 mM Tris pH 8, 100 mM NaCl, 5 mM MgCl2, 3 mM …
T1 sequence: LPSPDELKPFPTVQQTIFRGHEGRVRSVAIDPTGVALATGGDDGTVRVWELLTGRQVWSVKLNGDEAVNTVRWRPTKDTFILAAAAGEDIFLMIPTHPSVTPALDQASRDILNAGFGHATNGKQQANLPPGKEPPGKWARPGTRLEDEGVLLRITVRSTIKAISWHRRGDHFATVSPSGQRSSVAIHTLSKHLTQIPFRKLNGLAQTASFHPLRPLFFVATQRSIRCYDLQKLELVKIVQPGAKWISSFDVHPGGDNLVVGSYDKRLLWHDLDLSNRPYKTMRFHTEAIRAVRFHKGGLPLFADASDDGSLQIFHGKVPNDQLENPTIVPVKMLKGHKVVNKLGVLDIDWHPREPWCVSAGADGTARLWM

[2] = target: T2, Erb1 (Eukaryotic Ribosome Biogenesis 1) from Saccharomyces cerevisiae (Saccharomyces cerevisiae, UniProt Q04660 1-807); test: SEC; purified Nop7 and Erb1 mixed in equimolar amounts, Superdex200 16/60 in SE buffer (20mM Hepes pH 7.5; 0.25M NaCl; 2 mM β-mercaptoethanol, 5% glycerol); fractions of the heterodimer collected; conditions: both partners purified
T2 construct: Erb1, Saccharomyces cerevisiae, cloned from genomic DNA; 807 residues; Vector pET28-NKI/LIC 6His/3C: N-terminal 6xHis tag followed by a 3C protease site; no cleavage of the tag is told; also called 6xHis-Erb1; source: E. coli BL21 Codon Plus, purified (IMAC, size exclusion chromatography)
T2 sequence (looked up): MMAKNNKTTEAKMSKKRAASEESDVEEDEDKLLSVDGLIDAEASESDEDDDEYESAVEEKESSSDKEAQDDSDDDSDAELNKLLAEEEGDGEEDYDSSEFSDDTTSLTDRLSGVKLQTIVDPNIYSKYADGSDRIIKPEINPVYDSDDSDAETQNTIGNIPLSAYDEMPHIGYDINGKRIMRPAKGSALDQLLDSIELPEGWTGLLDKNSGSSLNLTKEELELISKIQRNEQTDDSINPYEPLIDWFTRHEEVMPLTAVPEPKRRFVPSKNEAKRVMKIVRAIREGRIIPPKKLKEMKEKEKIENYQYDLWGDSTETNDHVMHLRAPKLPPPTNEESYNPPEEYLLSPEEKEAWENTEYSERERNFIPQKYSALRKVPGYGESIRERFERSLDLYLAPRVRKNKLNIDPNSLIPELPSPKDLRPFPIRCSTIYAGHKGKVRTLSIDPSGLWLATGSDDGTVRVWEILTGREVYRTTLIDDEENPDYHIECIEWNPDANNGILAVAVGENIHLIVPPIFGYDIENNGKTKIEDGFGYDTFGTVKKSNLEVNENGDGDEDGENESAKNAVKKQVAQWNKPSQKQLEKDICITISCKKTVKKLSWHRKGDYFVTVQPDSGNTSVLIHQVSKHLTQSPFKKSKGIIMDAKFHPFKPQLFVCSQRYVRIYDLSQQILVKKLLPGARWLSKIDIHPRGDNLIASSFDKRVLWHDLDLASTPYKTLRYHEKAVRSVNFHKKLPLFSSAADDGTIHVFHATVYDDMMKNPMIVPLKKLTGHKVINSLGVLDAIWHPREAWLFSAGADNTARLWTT

[3] = target: T3, ChErb1 432-801 (C-terminal seven-bladed beta-propeller) (Chaetomium thermophilum var. …, UniProt G0SCK6 432-801); test: BLI; Fluorescence: 20 mM Hepes pH 7.5, 150 mM NaCl, 5% glycerol, 2 mM beta-mercaptoethanol, 25 C; bead pull-down: 50 mM Tris pH 8, 100 mM NaCl, 5 mM MgCl2, 3 mM DTT, 0.1% Triton X-100, 0.1 mg/ml BSA, room temperature; BLI conditions not in material; conditions: protein: recombinant; tags: N-terminal 6xHis with 3C site (pET28-NKI/LIC 6His/3C); single strand
T3 sequence: T1 sequence

Molecule: free poly(U)
Kd [1]: 3000 nM

binding result [2]: binds
B1: Nop7 from Saccharomyces cerevisiae (natural protein, UniProt P53261 1-605, looked up)
chain: MRIKKKNTRGNARNFITRSQAVRKLQVSLADFRRLCIFKGIYPREPRNKKKANKGSTAPTTFYYAKDIQYLMHEPVLAKFREHKTFARKLTRALGRGEVSSAKRLEENRDSYTLDHIIKERYPSFPDAIRDIDDALNMLFLFSNLPSTNQVSSKIINDAQKICNQWLAYVAKERLVRKVFVSIKGVYYQANIKGEEVRWLVPFKFPENIPSDVDFRIMLTFLEFYSTLLHFVLYKLYTDSGLIYPPKLDLKKDKIISGLSSYILESRQEDSLLKLDPTEIEEDVKVESLDASTLKSALNADEANTDETEKEEEQEKKQEKEQEKEQNEETELDTFEDNNKNKGDILIQPSKYDSPVASLFSAFVFYVSREVPIDILEFLILSCGGNVISEAAMDQIENKKDIDMSKVTHQIVDRPVLKNKVAGRTYIQPQWIFDCINKGELVPANKYLPGEALPPHLSPWGDAIGYDPTAPVEEGEEEESESESESEDQVEEEDQEVVAGEEDDDDDEELQAQKELELEAQGIKYSETSEADKDVNKSKNKKRKVDEEEEEKKLKMIMMSNKQKKLYKKMKYSNAKKEEQAENLKKKKKQIAKQKAKLNKLDSKK
notes: Nop7, Saccharomyces cerevisiae, cloned from genomic DNA; called full length Nop7 in the results; Vector pNIC28-Bsa4: N-terminal 6xHis tag followed by a TEV site; no cleavage of the tag is told; also called 6xHis-Nop7; source: E. coli BL21 Codon Plus, purified (IMAC, size exclusion chromatography)

B2: biotinylated poly(U) 15-mer (ssRNA)
RNA: UUUUUUUUUUUUUUU
Kd [3]: 170 nM
